The data set deals with prostate-specific antigen (PSA) (human, UniProt P07288 25-261). Briefly: electrochemical aptasensor (CV, SWV, EIS); ferrocyanide or TiO2/CQDs redox probe; 30 min binding; detection 0.5-7 ng/ml; LOD is not a Kd; Aptamer electrode washed with 0.1 mol/L PBS pH 7.0; PSA 30 min; 1.0 mM K3/K4[Fe(CN)6] (1:1), or TiO2/CQDs electrolyte at pH 5.4 and pH 8; temperature not stated. The conditions noted are these: protein: commercial.
Sequence of prostate-specific antigen (PSA) (P07288 25-261): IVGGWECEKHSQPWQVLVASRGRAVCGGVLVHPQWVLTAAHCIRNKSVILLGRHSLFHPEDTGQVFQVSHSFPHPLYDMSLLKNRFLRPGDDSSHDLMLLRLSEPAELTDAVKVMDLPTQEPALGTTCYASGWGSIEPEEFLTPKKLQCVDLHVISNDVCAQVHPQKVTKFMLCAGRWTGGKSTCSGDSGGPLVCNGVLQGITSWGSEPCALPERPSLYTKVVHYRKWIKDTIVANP

TTTTTTTTTTATTAAAGCTCGCCATCAAATAGCTGC (ssDNA, 5'-HS (thiol)) [thiolated PSA binding DNA aptamer]: the binding result is reported as “binds”.

(Values after paper PMC8576073, “Ultra pH‐sensitive detection of total and free prostate‐specific antigen using electrochemical aptasensor based on reduced graphene oxide/gold nanoparticles emphasis on TiO2/carbon quantum dots as a r”.)
